Where no end group is shown, it is not given here.
Molecular target: NIK624-947 (C-terminal domain of NIK) (human) (UniProt Q99558)
Test: yeast two-hybrid, against cγc 289-369 as reference

Chain of NIK624-947 (C-terminal domain of NIK) (human) (Q99558 624-947 limits assumed): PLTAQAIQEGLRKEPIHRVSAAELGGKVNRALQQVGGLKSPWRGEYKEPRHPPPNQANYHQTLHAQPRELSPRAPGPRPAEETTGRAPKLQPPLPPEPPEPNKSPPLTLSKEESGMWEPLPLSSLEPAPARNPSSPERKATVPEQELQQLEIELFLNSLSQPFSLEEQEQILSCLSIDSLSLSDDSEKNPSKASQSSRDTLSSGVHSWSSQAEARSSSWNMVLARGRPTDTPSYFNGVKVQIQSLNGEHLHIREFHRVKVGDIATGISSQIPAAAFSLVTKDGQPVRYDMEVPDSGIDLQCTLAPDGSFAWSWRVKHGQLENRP

reduction in affinity [%]	Binder
50	cγc 289-357 (12 aa deleted from the membrane distal domain) (receptor, not shown: large carriers) RIPTLKNLEDLVTEYHGNFSAWSGVSKGLAESLQPDYSERLCLVSEIPPKGGALGEGPGASPCNQHSPY
50	RIPTLKNLEDLVTEYHGNFSAWSGVSKGLAESLQPDY (receptor, not shown: large carriers, also: fused to GAL4 DNA-binding domain (two-hybrid bait), letters not given here) [cγc 289-325 (44 aa deleted from the ICD)]
